Experimental findings from PMC8765631 are described below.

Experiment [1] addresses RhsA_(ΔTMD) (RhsA lacking its N-terminal prePAAR motif and TMD, residues 74-1486) (Pseudomonas protegens Pf-5). Nature of the experiment: cryo-EM structure; purified RhsA_(ΔTMD) at 4 mg/ml in 20 mM Tris-HCl pH 8.0, 150 mM NaCl; single particle analysis with C2 symmetry, 3.3 Å.
The target in experiment [2] is VgrG1 from Pseudomonas protegens (Pseudomonas protegens Pf-5). Nature of the experiment: cryo-EM structure.

Consider “RhsA_(ΔTMD) (RhsA lacking its N-terminal prePAAR motif and TMD, residues 74-1486) (domain or fragment)”, for which, in experiment [1], the stoichiometry N (in general, a count of units in the complex or per binding partner) was determined as 2.

With “VgrG1 from Pseudomonas protegens (natural protein)”, the stoichiometry N in experiment [2] amounted to 3.
